Data taken from publication PMC12132311 (bioRxiv, 2025).
Several values for one entry are separate records, joined by “and”; a condition that tells them apart may be missing. Identical values can stand only once. No end group written: not given here. *: point of attachment. FITC = O=C1OC2(c3ccc(O)cc3Oc3cc(O)ccc32)c2ccc(NC(=S)*)cc21; 5FAM = O=C1OC2(c3ccc(O)cc3Oc3cc(O)ccc32)c2ccc(C(=O)*)cc21; Ahx = NCCCCCC(=O)O

T1: Carboxyl terminus of Hsc70-interacting protein (CHIP/STUB1), human, WT, full length (human), Q9UNE7
T1 chain: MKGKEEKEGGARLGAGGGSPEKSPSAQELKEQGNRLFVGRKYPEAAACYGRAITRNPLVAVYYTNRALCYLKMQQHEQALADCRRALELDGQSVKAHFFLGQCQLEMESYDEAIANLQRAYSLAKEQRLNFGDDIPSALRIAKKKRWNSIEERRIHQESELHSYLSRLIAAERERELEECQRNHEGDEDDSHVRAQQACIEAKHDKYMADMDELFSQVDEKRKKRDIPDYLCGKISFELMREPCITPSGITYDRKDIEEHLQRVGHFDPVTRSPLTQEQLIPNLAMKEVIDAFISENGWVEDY

T2: FAM-labeled Hsp70 C-terminal peptide (5FAM-Ahx-SSGPTIEEVD)
T2 peptide: {5FAM-Ahx}-SSGPTIEEVD

T3: CHIP-optimized peptide CHIPopt (FITC-Ahx-LWWPD)
T3 peptide: {FITC-Ahx}-LWWPD


Assays:
[1] = target: Carboxyl terminus of Hsc70-interacting protein (CHIP/STUB1), human, WT, full length (human, UniProt Q9UNE7); test: cryo-EM structure
Biotinylated CHIP = Biotinylated CHIP (Homo sapiens, UniProt Q9UNE7, biotin (site and way of biotinylation not stated)); test: BLI
[2] = target: T1, Carboxyl terminus of Hsc70-interacting …; test: cryo-EM structure; conditions: remark: other sources report otherwise
[3] = target: T2, FAM-labeled Hsp70 C-terminal peptide …; test: fluorescence polarisation
[4] = target: T3, CHIP-optimized peptide CHIPopt …; test: fluorescence polarisation
[5] = target: T2, FAM-labeled Hsp70 C-terminal peptide …; test: fluorescence polarisation
[6] = target: T3, CHIP-optimized peptide CHIPopt …; test: fluorescence polarisation

Kd (Biotinylated CHIP) [nM] | stoichiometry N [2] | apparent Kd with Fab H1 present [3] [nM] | apparent Kd with Fab H1 present [4] [nM] | apparent Kd with Fab 2D2 present [5] [nM] | apparent Kd with Fab 2D2 present [6] [nM] | Binder | stoichiometry N [1]
1100 | – | – | – | – | – | Fab H1 (CHIP-targeting fragment antigen-binding antibody) (Fab, V domains shown) VH: VQLVQSGSEVKKPGASVKVSCKASGYTFTNYGISWVRQAPGQGLEWMGWISAYNGNTNYAQNFQGRVTMTTDTSTKTAYMELRSLRSDDTAVYFCARSGYSGYDNNLGAFDIWGQGTMVTVSS VL: SVVTQPPSVSAAPGQKVTISCSGTSSNIGNSYVTWYQQLPGAAPKLLIYDNNKRPSGIPDRFSGSKSGTSATLGITGLQTGDEADYYCATWDSSLTAGRVFGGGTRLTVL | 1 Fab per CHIP dimer (printed as 2:1 CHIP:Fab) and 2 Fab per CHIP dimer (printed as 2:2 CHIP:Fab)
40 | – | – | – | – | – | Fab 2D2 (CHIP-targeting fragment antigen-binding antibody) (Fab, V domains shown) VH: QVQLQQSGPGLMKGGQTLSLTCAISGDSVSSNSAAWNWIRQSPSRGLEWLGRTYYRSKWYNEYAVSVKSRITINPDTSKNQFSLQLNSVTPEDTAVYYCARAVAASFDYWGQGTLVTVSS VL: ETTLTQSPGTLSLSPGERATLSCRASQSVSSTFLAWYQQKPGQAPRLLIYGASRRATGIPDRFSGSGSGTDFTLTISRLEPEDFAVYYCQRYGATYTFGQGTKLEIK | 1 Fab per CHIP dimer (printed as 2:1 CHIP:Fab)
– | 2 | 140 | 0.01 | 260 | 0.016 | Carboxyl terminus of Hsc70-interacting protein (CHIP/STUB1), human, WT, full length (enzyme) MKGKEEKEGGARLGAGGGSPEKSPSAQELKEQGNRLFVGRKYPEAAACYGRAITRNPLVAVYYTNRALCYLKMQQHEQALADCRRALELDGQSVKAHFFLGQCQLEMESYDEAIANLQRAYSLAKEQRLNFGDDIPSALRIAKKKRWNSIEERRIHQESELHSYLSRLIAAERERELEECQRNHEGDEDDSHVRAQQACIEAKHDKYMADMDELFSQVDEKRKKRDIPDYLCGKISFELMREPCITPSGITYDRKDIEEHLQRVGHFDPVTRSPLTQEQLIPNLAMKEVIDAFISENGWVEDY | –
